In paper PMC9687980 (Bioengineering, 2022):

Key:
[1] = molecular target: T1, MBP-fused spike receptor binding domain of SARS-CoV-2 Omicron BA.1 (MBP-RBDomi) (SARS-CoV-2 Omicron BA.1 (GenBank …, strain)); assay: ELISA; 4 ug of recombinant RBD immobilised on a high-binding plate; blocked with 4% skim milk; serial-diluted antibody in PBST; detected with Protein A-HRP, 450 nm; settings: both partners purified
T1 construct: also called MBP-fused Omicron RBD; MBP-RBD_(omicron)

[2] = molecular target: T2, spike RBD of SARS-CoV-2 Omicron expressed in a mammalian system (SARS-CoV-2 Omicron, taken as BA.1, strain, N-linked glycans appended on N331 and N343); assay: as above; settings: both partners purified
T2 construct: also called Mammalian RBDomi; mammalian cell-expressing RBDomi

B1: CR3022, human IgG1 (antibody, V domains shown)
VH: QMQLVQSGTEVKKPGESLKISCKGSGYGFITYWIGWVRQMPGKGLEWMGIIYPGDSETRYSPSFQGQVTISADKSINTAYLQWSSLKASDTAIYYCAGGSGISTPMDVWGQGTTVTV
VL: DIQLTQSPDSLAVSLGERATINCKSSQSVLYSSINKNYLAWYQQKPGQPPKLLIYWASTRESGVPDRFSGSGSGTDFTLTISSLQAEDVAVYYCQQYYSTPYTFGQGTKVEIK
notes: IgG1
- binding result [1]: binds
- binding result [2]: binds
